Laboratory results from PMC6996395 (FASEB bioAdvances, 2019).

Target: Split-CFTR front half (N-term-TMD1-NBD1; aa 1-634) (UniProt P13569 1-634)
Assay: proximity ligation

Chain of Split-CFTR front half (N-term-TMD1-NBD1; aa 1-634) (P13569 1-634): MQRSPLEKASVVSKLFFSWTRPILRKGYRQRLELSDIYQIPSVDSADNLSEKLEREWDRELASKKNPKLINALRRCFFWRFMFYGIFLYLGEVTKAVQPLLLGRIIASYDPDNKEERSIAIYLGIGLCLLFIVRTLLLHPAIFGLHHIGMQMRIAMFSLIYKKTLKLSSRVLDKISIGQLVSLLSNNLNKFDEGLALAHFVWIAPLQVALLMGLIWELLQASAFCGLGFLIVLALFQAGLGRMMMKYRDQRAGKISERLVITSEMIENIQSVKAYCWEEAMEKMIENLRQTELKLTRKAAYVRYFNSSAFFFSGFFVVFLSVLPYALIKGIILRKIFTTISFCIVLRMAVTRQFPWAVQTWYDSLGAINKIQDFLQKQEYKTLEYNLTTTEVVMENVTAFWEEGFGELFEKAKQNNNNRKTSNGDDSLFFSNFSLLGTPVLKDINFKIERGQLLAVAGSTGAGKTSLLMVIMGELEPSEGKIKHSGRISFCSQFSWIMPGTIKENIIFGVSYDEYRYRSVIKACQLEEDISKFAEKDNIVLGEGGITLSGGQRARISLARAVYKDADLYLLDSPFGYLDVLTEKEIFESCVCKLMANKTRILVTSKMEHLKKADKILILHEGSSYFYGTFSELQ

B1: CFTR R-region R-6CA (S641A/T682A/S707A/S790A/T791A/S809A; aa 635-836) (domain or fragment, UniProt P13569 635-836, looked up)
chain: NLQPDFASKLMGCDSFDQFSAERRNSILTETLHRFSLEGDAPVSWTEAKKQSFKQTGEFGEKRKNSILNPINAIRKFSIVQKTPLQMNGIEEDSDEPLERRLSLVPDSEQGEAILPRISVISTGPTLQARRRQSVLNLMTHSVNQGQNIHRKTTAAARKVSLAPQANLTELDIYARRLSQETGLEISEEINEEDLKECFFDD
  CTCF of PLA signal (after PKA stimulation): 1.4
  CTCF of PLA signal (after PKC + PKA stimulation): 5.28
  CTCF of PLA signal (after PKC stimulation): 5.54
  CTCF of PLA signal (basal): 0.33
